The values that follow come from the supplement of paper PMC9170038.

The test system of this data set is MS2 coat protein. Briefly: apparent KD of MS2 coat protein; designed switch direction (-1 OFF switch, 1 ON switch): -1; higher = weaker reporter binding. The method in brief: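 Designed RNA switches with common flanks were made on Illumina chips by stalled E. coli RNA polymerase. Titration with SNAP-549-labelled MS2 coat protein doubled from 0.7 or 1.5 nM up to 3 µM. Apparent KD is each design's median over clusters after curve-fitting normalised fluorescence.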

[1] abbreviates: Eterna round: R95, input ligand: microRNA oligo, concentration not stated.
[2] abbreviates: input ligand: microRNA oligo, concentration not stated.
[3] abbreviates: Eterna round: R95, input ligand: FMN 200 uM.
[4] abbreviates: Eterna round: R95, input ligand: none.

Regarding “CAGUACUGAGGAUAUACAUGAGGAUCACCCAUGUGCUCUAGCUAGGAUACUAGCAUUAGUAGAAGGCAGUACUG [Fiskers Ex 3 828 mod 8] (puzzle: Exclusion 3)”, the “apparent KD of MS2 coat protein” value under setting [1] worked out at 15.2 nM.
“CAGUACUGAGGAUAUACAUGAGGAUCACCCAUGUGUUCCAGCUAGGAAACUAGCUAAAGUAGAAGGCAGUACUG [salish99_ex3_r3_092x] (Eterna round: R96, puzzle: Exclusion 3)”: the “apparent KD of MS2 coat protein” value under setting [2] stood at 17.7 nM.
As to “CAGUACUGAGGAUAUACAUGAGGAUCACCCAUGUGUUCCAGCUAGGAAACUAGCUAAAGUAGAAGGCAGUACUG [salish99_ex3_r3_092x] (puzzle: Exclusion 3)”, the “apparent KD of MS2 coat protein” value reads like this: under setting [3], 459 nM; under setting [1], 24.1 nM; under setting [4], 25 nM.
With “CAGUACUGAGGAUAUACAUGAGGAUCACCCAUGUGUUCCAGCUAGGAUACUAGCAAAGGAAGAAGGCAGUACUG [Mat - Exclusion 3 - Eli Mod - D2] (Eterna round: R97, puzzle: Exclusion 3)”, the “apparent KD of MS2 coat protein” value was determined as 19.4 nM (input ligand: FMN 200 uM) and 18.9 nM (input ligand: none).
The like results for “CAGUCAGCGCAGGAUAUCUGCUCGGUGACAGACGGAGAAGGGUGCACAUGAGGAUCACCCAUGUGAAUCUCUAA [Eternabot (Original) Solution 3] (Eterna round: R97, puzzle: Exclusion 6)” were, in that order, 21.4 nM and 28.5 nM.
Take “CAGUCGAUAAGAUCAAUUAAUUAACAUGAGGAUCACCCAUGUGAGGAUAUCAGCUCGUGUAGAGCUGAGAAGGCACAACGACUG [ExNG3/17-A3] (Eterna round: R96, puzzle: Exclusion NG 3)”: the “apparent KD of MS2 coat protein” value is 278 nM (input ligand: FMN 200 uM), 51.7 nM under setting [2] and 60.2 nM (input ligand: none).
For “CAGUCGAUAAGAUCAAUUAAUUAACAUGAGGAUCACCCAUGUGAGGAUAUCAGCUCGUUUAGAGCUGAGAAGGCACAACGACUG [ExNG3/17-A2] (Eterna round: R96, puzzle: Exclusion NG 3)” the same measures were 305 nM, 32.4 nM and 37.9 nM.
As for “CAGUUCUGACGGAGAUCCAACAUGAGGAUCACCCAUGUCUCAAAAGCUUUUUGCUCGUCUUAUCCUCCUCAGGACUC [Mat - Sensor, turn-off var - Eli Mod - D58] (Eterna round: R97, puzzle: Sensor, turn-off variant 1)”, the “apparent KD of MS2 coat protein” value (input ligand: FMN 200 uM) was 16.4 nM and the “apparent KD of MS2 coat protein” value (input ligand: none) was determined as 16.4 nM.
In the case of “CAUACGGCAGGAUAUGCGUGGCCAUCUUAGCUCUACCUAAGACAUGAGGAUCACCCAUGUAGAAGGGUUACAUA [Eternabot (Original) Solution 41] (Eterna round: R97, puzzle: Exclusion 2)”, the “apparent KD of MS2 coat protein” value (input ligand: FMN 200 uM) turned out to be 20.5 nM and the “apparent KD of MS2 coat protein” value (input ligand: none) was determined as 19.8 nM.
Turning to “CAUAGUAAUUAGGAUAUCUGCCGGCUGAGCCGAGGAGAAGGGAUUACAUGAGGAUCACCCAUGUGGUCCUAGAA [Lebireti] (puzzle: Exclusion 6)”, the “apparent KD of MS2 coat protein” value runs as follows: under setting [3], 31.3 nM; under setting [1], 20.1 nM; under setting [4], 19.9 nM.
As to “CAUAUGUGAGGAUAUGACAAUGGUAUCUUCGGAUACCAUUGUCAGAAGGCACAUGAGGAUCACCCAUGUGGAUC [Exclusion 4 - Mod Brourd Ex 4-3: 20 v.5] (puzzle: Exclusion 4)”, the “apparent KD of MS2 coat protein” value under setting [1] amounted to 151 nM.
Turning to “CAUAUUGUAGGAUAUAUUCGAAAGGUCCUCUUCCCAUACCGACAUGAGGAUCACCCAUGUAGAAGGAUAGUGCC [Eternabot (L2) Solution 13] (Eterna round: R97, puzzle: Exclusion 2)”, the “apparent KD of MS2 coat protein” value by setting is: (input ligand: FMN 200 uM) 48.9 nM; (input ligand: none) 53.6 nM.
On to “CAUCCGGCAGGAUAUACAUGAGGAUCACCCAUGUCAGAAAGCAAAUUGUGCGACUCAGGUAGAAGGGUUGGACU [Ederusat] (puzzle: Exclusion 3)”, for which the “apparent KD of MS2 coat protein” value under setting [1] was found to be 21.1 nM.
Regarding “CAUCUCGUAGGAUAUUCACAAAAGCACAUGAGGAUCACCCAUGUUAUCCGACAUGAUGCCGAAGAAGGACGAAAAC [Di] (puzzle: Exclusion 5)”, the “apparent KD of MS2 coat protein” value under setting [3] was determined as 107 nM, the “apparent KD of MS2 coat protein” value under setting [1] came to 79.8 nM and the “apparent KD of MS2 coat protein” value under setting [4] came out at 78.9 nM.
With “CAUGAUCUUCGGAUCAUGUACAUGAGGAUCACCCAUGUUACGAGUUGAUUUUCAUACAAGCUUUUUGCUCGUCUUAU [Sensor v3 - Turn-off variant 1 - 27] (puzzle: Sensor v3, turn-off variant 1)”, the “apparent KD of MS2 coat protein” value by setting is: under setting [3], 226 nM; under setting [1], 330 nM; under setting [4], 240 nM.
In the case of “CAUGAUUGGCGAGGAUAUUGAUCUACAUGGCGACGAGAAGGCGCCUGUCACAUGAGGAUCACCCAUGUGAGUCUGGUGAAUGAG [Ex NG1 #85] (Eterna round: R96, puzzle: Exclusion NG 1)”, the “apparent KD of MS2 coat protein” value was found to be 67.2 nM (input ligand: FMN 200 uM), 25 nM under setting [2] and 42.6 nM (input ligand: none).
The like results for “CAUGAUUGGGAAGGAUAUUGACCUAGUUAGCGCCGAGAAGGUCCCUGUCACAUGAGGAUCACCCAUGUGAAUCUGGUGUUCGAG [Ex NG1 #94] (Eterna round: R96, puzzle: Exclusion NG 1)” were, in that order, 36.7 nM, 17.9 nM and 19.7 nM.
For “CAUGCUUCAUAGGAUAUGGAAGACGUACCGUCGCUAGAAGGAUGAACAUGAGGAUCACCCAUGUAAUACAGGGC [Eternabot (L2) Solution 64] (Eterna round: R97, puzzle: Exclusion 6)”, the “apparent KD of MS2 coat protein” value by setting is: (input ligand: FMN 200 uM) 169 nM; (input ligand: none) 68.6 nM.
Take “CAUGGAUGUGAGCCGCAUUACAUGAGGAUCACCCAUGUCAACAAGCUUUUUGCUUGUCUUACGCGGCGGCACCAGAA [Getelexe] (Eterna round: R96, puzzle: Sensor v3, turn-off variant 1)”: the “apparent KD of MS2 coat protein” value (input ligand: FMN 200 uM) was 13 nM, the “apparent KD of MS2 coat protein” value under setting [2] was 6.81 nM and the “apparent KD of MS2 coat protein” value (input ligand: none) worked out at 14.9 nM.
As for “CAUGGAUGUGAGCCGCAUUACAUGAGGAUCACCCAUGUCAACAAGCUUUUUGCUUGUCUUACGCGGCGGCACCAGAA [Getelexe] (puzzle: Sensor v3, turn-off variant 1)”, the “apparent KD of MS2 coat protein” value reads like this: under setting [3], 14.3 nM; under setting [1], 8.03 nM; under setting [4], 10.8 nM.
As for “CAUGUGUUAGGAUAUGCACAGAUCUCCUAAUGGAGAUCUGUGCAGAAGGGACAUGAGGAUCACCCAUGUUGAUG [Mod of Brourd 14 - Jieux - Exclusion 4] (Eterna round: R97, puzzle: Exclusion 4)”, the “apparent KD of MS2 coat protein” value runs as follows: (input ligand: FMN 200 uM) 78.6 nM; (input ligand: none) 48.6 nM.
The like results for “CAUGUUUGUCGUUGAUCCAACAUGAGGAUCACCCAUGUCUCUUUAGCUUUUUGCUCGUCUUAUCCUCCUUUGUUCAC [JR_STOV1_v2_Sub0101] (Eterna round: R97, puzzle: Sensor, turn-off variant 1)” were, in that order, 65.5 nM and 401 nM.
With “CAUUACUGCAGGCUUUGGGACAUGAGGAUCACCCAUGUUCGUCUUAUUGAUCUAGGUACGCUGACGUACCUAGAUCU [JL-sv1-2.26 Brourd mod] (puzzle: Sensor v3, turn-off variant 1)”, the “apparent KD of MS2 coat protein” value runs as follows: under setting [3], 17.6 nM; under setting [1], 20.8 nM; under setting [4], 15.1 nM.
